Experimental data: article PMC9482650, “Quantitative fragmentomics allow affinity mapping of interactomes” (Nature Communications, 2022)

What was measured:
Assay in all cases: holdup assay
Parameters in all cases: key: below the threshold = too weak to quantify, mostly under pKd 3.1 to 4
APBA1_2, Q02410 = target: T1, APBA1_2, Q02410
T1 sequence (Q02410 742-832, limits assumed, looked up): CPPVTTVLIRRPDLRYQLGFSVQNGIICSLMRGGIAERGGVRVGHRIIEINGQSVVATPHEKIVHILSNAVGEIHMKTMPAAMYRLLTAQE

CASK, O14936 = target: CASK, O14936
DLG1_1, Q12959 = target: DLG1_1, Q12959
DLG4_3, P78352 = target: DLG4_3, P78352
FRMPD2_1, Q68DX3 = target: FRMPD2_1, Q68DX3
FRMPD2_2, Q68DX3 = target: FRMPD2_2, Q68DX3
FRMPD2_3, Q68DX3 = target: FRMPD2_3, Q68DX3
GIPC2, Q8TF65 = target: GIPC2, Q8TF65
GORASP1, Q9BQQ3 = target: GORASP1, Q9BQQ3
GRIP1_3, Q9Y3R0 = target: T2, GRIP1_3, Q9Y3R0
T2 sequence (Q9Y3R0 247-346, limits assumed, looked up): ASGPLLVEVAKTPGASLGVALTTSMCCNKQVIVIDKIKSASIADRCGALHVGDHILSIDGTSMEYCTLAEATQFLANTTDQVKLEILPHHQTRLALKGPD

GRIP1_4, Q9Y3R0 = target: T3, GRIP1_4, Q9Y3R0
T3 sequence (Q9Y3R0 467-571, limits assumed, looked up): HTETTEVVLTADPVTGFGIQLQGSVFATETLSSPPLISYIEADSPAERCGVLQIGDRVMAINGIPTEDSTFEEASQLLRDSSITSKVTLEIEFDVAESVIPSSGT

GRIP2_6, Q9C0E4 = target: GRIP2_6, Q9C0E4
GRIP2_7, Q9C0E4 = target: GRIP2_7, Q9C0E4
Inadl_2, Q8NI35 = target: Inadl_2, Q8NI35
LAP2, Q96RT1 = target: LAP2, Q96RT1
LIN7B, Q9HAP6 = target: T4, LIN7B, Q9HAP6
T4 sequence (Q9HAP6 88-185, limits assumed, looked up): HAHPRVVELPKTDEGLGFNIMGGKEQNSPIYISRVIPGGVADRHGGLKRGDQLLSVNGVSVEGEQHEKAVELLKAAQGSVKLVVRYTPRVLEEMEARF

LNX1_1, Q8TBB1 = target: LNX1_1, Q8TBB1
LNX1_3, Q8TBB1 = target: LNX1_3, Q8TBB1
MAGI1_2, Q96QZ7 = target: MAGI1_2, Q96QZ7
MAGI2_4, Q86UL8 = target: MAGI2_4, Q86UL8
MPP6, Q9NZW5 = target: T5, MPP6, Q9NZW5
T5 sequence (Q9NZW5 125-219, limits assumed, looked up): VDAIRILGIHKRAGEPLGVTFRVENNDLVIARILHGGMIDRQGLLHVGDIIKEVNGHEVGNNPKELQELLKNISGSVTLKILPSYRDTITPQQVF

MPP7, Q5T2T1 = target: T6, MPP7, Q5T2T1
T6 sequence (Q5T2T1 134-230, limits assumed, looked up): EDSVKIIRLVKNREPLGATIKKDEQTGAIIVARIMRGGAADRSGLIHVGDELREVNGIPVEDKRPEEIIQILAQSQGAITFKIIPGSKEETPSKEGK

NHERF3_4, Q5T2W1 = target: T7, NHERF3_4, Q5T2W1
T7 sequence (Q5T2W1 373-468, limits assumed, looked up): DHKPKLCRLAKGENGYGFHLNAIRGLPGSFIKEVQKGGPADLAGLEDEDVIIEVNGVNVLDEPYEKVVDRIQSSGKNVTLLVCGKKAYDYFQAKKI

PCLO, Q9Y6V0 = target: T8, PCLO, Q9Y6V0
T8 sequence (Q9Y6V0 4491-4600, limits assumed, looked up): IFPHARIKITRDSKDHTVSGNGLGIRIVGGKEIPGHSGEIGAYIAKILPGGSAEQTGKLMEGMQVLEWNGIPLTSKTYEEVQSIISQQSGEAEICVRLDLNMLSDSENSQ

PDZD2_2, O15018 = target: T9, PDZD2_2, O15018
T9 sequence (O15018 329-429, limits assumed, looked up): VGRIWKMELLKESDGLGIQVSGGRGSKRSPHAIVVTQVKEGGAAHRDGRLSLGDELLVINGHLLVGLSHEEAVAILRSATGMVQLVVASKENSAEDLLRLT

PDZD7_3, Q9H5P4 = target: T10, PDZD7_3, Q9H5P4
T10 sequence (Q9H5P4 857-944, limits assumed, looked up): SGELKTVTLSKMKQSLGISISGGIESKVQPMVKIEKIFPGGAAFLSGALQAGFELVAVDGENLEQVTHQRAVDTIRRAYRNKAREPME

RADIL, Q96JH8 = target: T11, RADIL, Q96JH8
T11 sequence (Q96JH8 971-1071, limits assumed, looked up): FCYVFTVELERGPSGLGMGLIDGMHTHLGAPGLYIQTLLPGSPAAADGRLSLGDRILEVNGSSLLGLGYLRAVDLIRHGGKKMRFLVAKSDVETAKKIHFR

[1] = plain residues with an end cap or a label only (N-terminal biotin on a linker: ttds)
[2] = plain residues with an end cap or a label only (N-terminal biotin on a linker: ahx)

Chain of GRIP2_6, Q9C0E4 (Q9C0E4 648-740): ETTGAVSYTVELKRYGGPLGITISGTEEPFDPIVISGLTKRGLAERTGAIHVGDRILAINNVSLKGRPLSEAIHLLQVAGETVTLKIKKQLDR
Chain of LNX1_3, Q8TBB1 (Q8TBB1 500-596): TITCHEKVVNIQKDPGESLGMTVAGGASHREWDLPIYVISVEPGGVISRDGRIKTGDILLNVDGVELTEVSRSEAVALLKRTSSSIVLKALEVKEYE
Chain of Inadl_2, Q8NI35 (Q8NI35 238-335): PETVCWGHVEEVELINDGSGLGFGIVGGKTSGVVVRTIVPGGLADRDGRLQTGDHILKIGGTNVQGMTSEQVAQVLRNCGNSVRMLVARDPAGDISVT
Chain of GRIP2_7, Q9C0E4 (Q9C0E4 934-1023): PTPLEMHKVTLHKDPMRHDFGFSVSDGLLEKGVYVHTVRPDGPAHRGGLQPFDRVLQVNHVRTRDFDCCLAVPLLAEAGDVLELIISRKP
Chain of GIPC2, Q8TF65 (Q8TF65 112-203): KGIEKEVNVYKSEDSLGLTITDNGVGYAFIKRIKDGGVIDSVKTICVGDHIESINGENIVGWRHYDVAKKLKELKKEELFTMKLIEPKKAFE
Chain of GORASP1, Q9BQQ3 (Q9BQQ3 1-208): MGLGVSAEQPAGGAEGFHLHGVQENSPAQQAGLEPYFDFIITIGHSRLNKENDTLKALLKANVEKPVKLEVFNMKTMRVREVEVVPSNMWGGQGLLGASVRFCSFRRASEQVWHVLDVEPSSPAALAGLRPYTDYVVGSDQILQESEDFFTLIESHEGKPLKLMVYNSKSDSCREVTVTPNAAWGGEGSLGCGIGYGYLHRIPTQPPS
Chain of MAGI1_2, Q96QZ7 (Q96QZ7 456-580): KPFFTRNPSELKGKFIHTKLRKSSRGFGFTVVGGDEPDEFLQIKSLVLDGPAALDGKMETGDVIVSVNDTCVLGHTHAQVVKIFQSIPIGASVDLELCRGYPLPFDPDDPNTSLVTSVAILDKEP
Chain of MAGI2_4, Q86UL8 (Q86UL8 772-865): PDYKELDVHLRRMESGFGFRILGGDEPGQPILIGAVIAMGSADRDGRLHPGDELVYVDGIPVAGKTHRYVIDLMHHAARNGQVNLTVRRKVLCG
Chain of CASK, O14936 (O14936 487-570): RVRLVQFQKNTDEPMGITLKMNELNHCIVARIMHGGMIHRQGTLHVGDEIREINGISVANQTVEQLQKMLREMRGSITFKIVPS
Chain of LNX1_1, Q8TBB1 (Q8TBB1 261-371): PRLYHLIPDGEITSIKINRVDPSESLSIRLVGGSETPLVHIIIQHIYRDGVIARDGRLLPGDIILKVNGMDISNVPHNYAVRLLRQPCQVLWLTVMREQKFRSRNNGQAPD
Chain of FRMPD2_1, Q68DX3 (Q68DX3 770-861): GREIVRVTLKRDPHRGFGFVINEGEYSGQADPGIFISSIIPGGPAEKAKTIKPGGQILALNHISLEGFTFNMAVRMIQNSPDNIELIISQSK
Chain of LAP2, Q96RT1 (Q96RT1 other isoform, or with tags, fused parts or gaps): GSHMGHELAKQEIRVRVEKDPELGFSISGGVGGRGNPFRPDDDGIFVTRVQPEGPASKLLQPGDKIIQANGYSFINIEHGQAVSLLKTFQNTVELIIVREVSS
Chain of FRMPD2_2, Q68DX3 (Q68DX3 944-1038): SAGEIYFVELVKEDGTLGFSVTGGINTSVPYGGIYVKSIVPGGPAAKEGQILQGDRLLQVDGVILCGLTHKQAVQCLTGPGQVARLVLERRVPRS
Chain of FRMPD2_3, Q68DX3 (Q68DX3 1073-1166): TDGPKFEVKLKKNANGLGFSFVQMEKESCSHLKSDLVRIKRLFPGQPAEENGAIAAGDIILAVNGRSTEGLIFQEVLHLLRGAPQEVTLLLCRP
Chain of DLG4_3, P78352 (P78352 306-403): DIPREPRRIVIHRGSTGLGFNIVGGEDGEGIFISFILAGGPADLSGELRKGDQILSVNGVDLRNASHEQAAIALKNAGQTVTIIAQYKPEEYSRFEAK

B1: KCNA5, P22460 (peptide)
chain: CLDTSRETDL
With B1 the pKd (APBA1_2, Q02410; [1]) was “below the threshold”, the pKd (CASK, O14936; [1]) was “below the threshold” and the pKd (DLG1_1, Q12959; [1]) was 3.79. The pKd (DLG4_3, P78352; [1]) was “below the threshold”, the pKd (FRMPD2_1, Q68DX3; [1]) was “below the threshold” and the pKd (FRMPD2_2, Q68DX3; [1]) was “below the threshold”. For the same binder, the pKd (FRMPD2_3, Q68DX3; [1]) was “below the threshold”, the pKd (GIPC2, Q8TF65; [1]) was “below the threshold” and the pKd (GORASP1, Q9BQQ3; [1]) was “below the threshold”. For the same binder, the pKd (GRIP1_3, Q9Y3R0; [1]) was 3.66, the pKd (GRIP1_4, Q9Y3R0; [1]) was “below the threshold” and the pKd (GRIP2_6, Q9C0E4; [1]) was 3.54. The pKd (GRIP2_7, Q9C0E4; [1]) was “below the threshold”, the pKd (Inadl_2, Q8NI35; [1]) was “below the threshold” and the pKd (LAP2, Q96RT1; [1]) was 3.5. For the same binder, the pKd (LIN7B, Q9HAP6; [1]) was “below the threshold”, the pKd (LNX1_1, Q8TBB1; [1]) was 3.91 and the pKd (LNX1_3, Q8TBB1; [1]) was “below the threshold”. For the same binder, the pKd (MAGI1_2, Q96QZ7; [1]) was “below the threshold”, the pKd (MAGI2_4, Q86UL8; [1]) was “below the threshold” and the pKd (MPP6, Q9NZW5; [1]) was “below the threshold”. The pKd (MPP7, Q5T2T1; [1]) was “below the threshold”, the pKd (NHERF3_4, Q5T2W1; [1]) was “below the threshold” and the pKd (PCLO, Q9Y6V0; [1]) was “below the threshold”. For the same binder, the pKd (PDZD2_2, O15018; [1]) was 3.59, the pKd (PDZD7_3, Q9H5P4; [1]) was 4.05 and the pKd (RADIL, Q96JH8; [1]) was “below the threshold”.

B2: RAPGEF2, Q9Y4G8 (peptide)
chain: EDEDEQVSAV
For B2, the pKd (APBA1_2, Q02410; [2]) was 3.65, the pKd (CASK, O14936; [2]) was “below the threshold” and the pKd (DLG1_1, Q12959; [2]) was “below the threshold”. The pKd (DLG4_3, P78352; [2]) was “below the threshold”, the pKd (FRMPD2_1, Q68DX3; [2]) was “below the threshold” and the pKd (FRMPD2_2, Q68DX3; [2]) was 5.03. The pKd (FRMPD2_3, Q68DX3; [2]) was “below the threshold”, the pKd (GIPC2, Q8TF65; [2]) was 3.81 and the pKd (GORASP1, Q9BQQ3; [2]) was “below the threshold”. For the same binder, the pKd (GRIP1_3, Q9Y3R0; [2]) was “below the threshold”, the pKd (GRIP1_4, Q9Y3R0; [2]) was “below the threshold” and the pKd (GRIP2_6, Q9C0E4; [2]) was “below the threshold”. For the same binder, the pKd (GRIP2_7, Q9C0E4; [2]) was “below the threshold”, the pKd (Inadl_2, Q8NI35; [2]) was “below the threshold” and the pKd (LAP2, Q96RT1; [2]) was 3.62. For the same binder, the pKd (LIN7B, Q9HAP6; [2]) was “below the threshold”, the pKd (LNX1_1, Q8TBB1; [2]) was “below the threshold” and the pKd (LNX1_3, Q8TBB1; [2]) was “below the threshold”. For the same binder, the pKd (MAGI1_2, Q96QZ7; [2]) was “below the threshold”, the pKd (MAGI2_4, Q86UL8; [2]) was “below the threshold” and the pKd (MPP6, Q9NZW5; [2]) was “below the threshold”. The pKd (MPP7, Q5T2T1; [2]) was “below the threshold”, the pKd (NHERF3_4, Q5T2W1; [2]) was “below the threshold” and the pKd (PCLO, Q9Y6V0; [2]) was “below the threshold”. For the same binder, the pKd (PDZD2_2, O15018; [2]) was 5.72, the pKd (PDZD7_3, Q9H5P4; [2]) was 3.87 and the pKd (RADIL, Q96JH8; [2]) was “below the threshold”.
